± gives the uncertainty stated by the source.
Assay: protein stability index of a GFP-peptide fusion (yeast GPS) (PSI 1-4); higher = more stable; sorted into four equal gates, so the index is relative within each strain
Procedure, shortened: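 Sequencing reads from sorted gates were used to score each peptide. The library consisted of tiled 17-residue yeast protein peptides fused downstream of GFP on a Cherry-expressing plasmid, pooled and carried in yeast. Mid-log cultures in leucine-free medium were split into four equal gates by GFP/Cherry ratio, and each gate's plasmids were PCR-amplified and Illumina-sequenced. The protein stability index adds up, over all gates, the read frequency multiplied by the gate number.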

## GDYNNTVYSSEQYIQEL [SMC3]
doa10∆
  protein stability index: 2.9 ± 0.11
pdr5∆
  protein stability index: 3.2 ± 0.11
san1∆
  protein stability index: 3.22 ± 0.074
ubr1∆
  protein stability index: 3.14 ± 0.042

## RALVEHIIQAKADAQRE [RPL19A]
doa10∆
  protein stability index: 1.67 ± 0.26

## MQQAQFQAQQAQQAQQA [SNF2]
doa10∆
  protein stability index: 2.56 ± 0.043
pdr5∆
  protein stability index: 2.86 ± 0.039
san1∆
  protein stability index: 2.62 ± 0.032
ubr1∆
  protein stability index: 2.53 ± 0.032

## TKIFNSVAEVFQKAQGS [YCG1]
doa10∆
  protein stability index: 1.89 ± 0.12
pdr5∆
  protein stability index: 1.55 ± 0.23
ubr1∆
  protein stability index: 1.5 ± 0.07

## RENLHILNEVFTNPSIV [RRP6]
doa10∆
  protein stability index: 2.26 ± 0.076
pdr5∆
  protein stability index: 2.93 ± 0.063
san1∆
  protein stability index: 2.5 ± 0.058
ubr1∆
  protein stability index: 2.25 ± 0.053

## AYILAAQKTSFEYEGVQ [RPN1]
doa10∆
  protein stability index: 2.39 ± 0.072
pdr5∆
  protein stability index: 2.35 ± 0.079
san1∆
  protein stability index: 2.2 ± 0.15
ubr1∆
  protein stability index: 2.23 ± 0.08

## ALLRSGRLDRKIEFPLP [RPT5]
ubr1∆
  protein stability index: 3.43 ± 0.18

## IVHDDPASDDILDNINH [ITC1]
doa10∆
  protein stability index: 2.98 ± 0.072
pdr5∆
  protein stability index: 3.02 ± 0.062
san1∆
  protein stability index: 3.04 ± 0.09
ubr1∆
  protein stability index: 3.25 ± 0.058

## MDALTLMKCCHEAYSII [RRP45]
doa10∆
  protein stability index: 1.77 ± 0.063
pdr5∆
  protein stability index: 2.04 ± 0.071
san1∆
  protein stability index: 1.84 ± 0.099
ubr1∆
  protein stability index: 1.76 ± 0.12

## TPKGNESEQELSLHTGF [MTR3]
doa10∆
  protein stability index: 3.22 ± 0.11
pdr5∆
  protein stability index: 3.13 ± 0.1
san1∆
  protein stability index: 3.18 ± 0.12
ubr1∆
  protein stability index: 3.17 ± 0.061

## NNNGNPGTTSTGNNNNI [GAL11]
doa10∆
  protein stability index: 3.18 ± 0.12
pdr5∆
  protein stability index: 3.34 ± 0.075
san1∆
  protein stability index: 3.18 ± 0.061
ubr1∆
  protein stability index: 3.23 ± 0.07

## LSALNSEISSLKGKINN [SMC1]
doa10∆
  protein stability index: 3.03 ± 0.09
pdr5∆
  protein stability index: 3 ± 0.092
san1∆
  protein stability index: 3.08 ± 0.064
ubr1∆
  protein stability index: 3.06 ± 0.075

## ELGVSIYDFPGTPEATK [NUT2]
doa10∆
  protein stability index: 2.92 ± 0.076
pdr5∆
  protein stability index: 3.06 ± 0.098
san1∆
  protein stability index: 3.06 ± 0.078
ubr1∆
  protein stability index: 3.04 ± 0.048

## IFSYGPHIQKMLSILEI [POP6]
doa10∆
  protein stability index: 2.27 ± 0.12
pdr5∆
  protein stability index: 1.93 ± 0.067
san1∆
  protein stability index: 2.56 ± 0.15
ubr1∆
  protein stability index: 2.24 ± 0.073

## YIRKLISSGLLYLQDSN [SRB8]
doa10∆
  protein stability index: 1.63 ± 0.068
pdr5∆
  protein stability index: 1.21 ± 0.093
san1∆
  protein stability index: 1.18 ± 0.11
ubr1∆
  protein stability index: 1.11 ± 0.061

## MKNENANPKKLALMTAH [CDC53]
doa10∆
  protein stability index: 2.12 ± 0.039
pdr5∆
  protein stability index: 2.33 ± 0.046
san1∆
  protein stability index: 2.09 ± 0.048
ubr1∆
  protein stability index: 1.79 ± 0.032

## GNQQQQLQQQPQMQCAL [YGL172W/NUP49]
doa10∆
  protein stability index: 2.79 ± 0.17
pdr5∆
  protein stability index: 2.66 ± 0.19
san1∆
  protein stability index: 2.87 ± 0.1

## DFLGVASTGSGKTLAFV [PRP28]
doa10∆
  protein stability index: 3.42 ± 0.26
pdr5∆
  protein stability index: 3.05 ± 0.22
san1∆
  protein stability index: 2.92 ± 0.22
ubr1∆
  protein stability index: 3.31 ± 0.061

## NFNLKPTKTLTTKERKK [PRP8]
doa10∆
  protein stability index: 1.98 ± 0.049
pdr5∆
  protein stability index: 2.54 ± 0.074
san1∆
  protein stability index: 2.19 ± 0.075
ubr1∆
  protein stability index: 2.12 ± 0.041

## YQRSKRVNNPNVSLIKI [RPL33A]
doa10∆
  protein stability index: 3.1 ± 0.067
pdr5∆
  protein stability index: 3.15 ± 0.065
san1∆
  protein stability index: 2.93 ± 0.059
ubr1∆
  protein stability index: 3.21 ± 0.045

## AAPKKTRKAVRPQKLRA [RPL6B]
doa10∆
  protein stability index: 2.64 ± 0.11
pdr5∆
  protein stability index: 2.61 ± 0.29
san1∆
  protein stability index: 2.8 ± 0.16

## NLKEYNKFMSIFLKRKD [SRB8]
doa10∆
  protein stability index: 1.64 ± 0.06
pdr5∆
  protein stability index: 2.22 ± 0.12
san1∆
  protein stability index: 2.83 ± 0.078
ubr1∆
  protein stability index: 1.88 ± 0.096

## LEGNDIHALAAKLLQEN [FAS1]
doa10∆
  protein stability index: 2.76 ± 0.063
pdr5∆
  protein stability index: 2.95 ± 0.065
san1∆
  protein stability index: 2.77 ± 0.051
ubr1∆
  protein stability index: 2.7 ± 0.059

## GEDFMEVDYEDKDNPVD [SRB4]
doa10∆
  protein stability index: 3.56 ± 0.12
pdr5∆
  protein stability index: 2.96 ± 0.24
san1∆
  protein stability index: 3.46 ± 0.15
ubr1∆
  protein stability index: 3.32 ± 0.17

## DNDFIINDFKKIGRENE [POP5]
doa10∆
  protein stability index: 3.33 ± 0.071
pdr5∆
  protein stability index: 3.38 ± 0.072
san1∆
  protein stability index: 3.3 ± 0.057
ubr1∆
  protein stability index: 3.35 ± 0.047

## FPQTAMLRRHAAPPSTN [DIS3]
doa10∆
  protein stability index: 1.89 ± 0.1
pdr5∆
  protein stability index: 1.93 ± 0.12
ubr1∆
  protein stability index: 1.74 ± 0.07

## LVNIRTQTSKEQEIENN [ITC1]
doa10∆
  protein stability index: 2.9 ± 0.054
pdr5∆
  protein stability index: 3.05 ± 0.067
san1∆
  protein stability index: 2.9 ± 0.061
ubr1∆
  protein stability index: 3.06 ± 0.066

## QLKWAQNTIDDTEMKMK [YIL149C/MLP2]
doa10∆
  protein stability index: 2.15 ± 0.046
pdr5∆
  protein stability index: 2.88 ± 0.056
san1∆
  protein stability index: 2.71 ± 0.059
ubr1∆
  protein stability index: 2.74 ± 0.059

## EAMLRENIEVILSNGRM [SNF12]
doa10∆
  protein stability index: 2.79 ± 0.063
pdr5∆
  protein stability index: 2.82 ± 0.061
san1∆
  protein stability index: 2.86 ± 0.046
ubr1∆
  protein stability index: 2.75 ± 0.059

## KSMNKSAINQYNRRQDK [SNF2]
doa10∆
  protein stability index: 2.26 ± 0.075
pdr5∆
  protein stability index: 2.63 ± 0.082
san1∆
  protein stability index: 2.44 ± 0.058
ubr1∆
  protein stability index: 2.48 ± 0.083

## SKIQEIESIRSCKDSQL [YIL149C/MLP2]
doa10∆
  protein stability index: 2.29 ± 0.044
pdr5∆
  protein stability index: 2.92 ± 0.054
san1∆
  protein stability index: 2.77 ± 0.041
ubr1∆
  protein stability index: 2.79 ± 0.047

## ENIIQRLQAANSMEYTG [CDC53]
doa10∆
  protein stability index: 1.94 ± 0.065
pdr5∆
  protein stability index: 2.32 ± 0.11
san1∆
  protein stability index: 2.25 ± 0.18
ubr1∆
  protein stability index: 1.9 ± 0.095

## MFAYAKEHEPCIIFMDE [RPT4]
doa10∆
  protein stability index: 2.34 ± 0.043
pdr5∆
  protein stability index: 2.32 ± 0.05
san1∆
  protein stability index: 2.24 ± 0.065
ubr1∆
  protein stability index: 2.4 ± 0.043

## GIFIKILNDSLIYHLKD [IRR1]
doa10∆
  protein stability index: 1.54 ± 0.045
pdr5∆
  protein stability index: 1.31 ± 0.048
san1∆
  protein stability index: 1.69 ± 0.068
ubr1∆
  protein stability index: 1.75 ± 0.033

## MSAPQAKILSQAPTELE [RPS7A]
doa10∆
  protein stability index: 2.79 ± 0.08
pdr5∆
  protein stability index: 2.9 ± 0.068
san1∆
  protein stability index: 2.41 ± 0.1
ubr1∆
  protein stability index: 2.53 ± 0.073

## IANMVLPPEKIYSPLHS [SIR2]
doa10∆
  protein stability index: 1.54 ± 0.035
pdr5∆
  protein stability index: 1.99 ± 0.036
san1∆
  protein stability index: 1.73 ± 0.05
ubr1∆
  protein stability index: 1.67 ± 0.032

## AQDFKTDLRFQSSAIGA [HHT1]
doa10∆
  protein stability index: 1.32 ± 0.12
pdr5∆
  protein stability index: 1.41 ± 0.14
san1∆
  protein stability index: 1.24 ± 0.19
ubr1∆
  protein stability index: 1.3 ± 0.23

## GNGITNTTTRVIPQVEV [SNF5]
doa10∆
  protein stability index: 3.02 ± 0.15
pdr5∆
  protein stability index: 2.58 ± 0.095
san1∆
  protein stability index: 1.98 ± 0.21
ubr1∆
  protein stability index: 2.49 ± 0.1

## KRVTIQKKDIKLARRLR [HHT1]
doa10∆
  protein stability index: 3.15 ± 0.14
pdr5∆
  protein stability index: 2.87 ± 0.17
ubr1∆
  protein stability index: 3.05 ± 0.088

## GSELSSKIRKIHIQETQ [SIR3]
doa10∆
  protein stability index: 2.61 ± 0.069
pdr5∆
  protein stability index: 2.54 ± 0.084
san1∆
  protein stability index: 2.58 ± 0.075
ubr1∆
  protein stability index: 2.68 ± 0.056

## PTLPRSDRECPKCHSRE [RPB9]
doa10∆
  protein stability index: 2.79 ± 0.052
pdr5∆
  protein stability index: 2.92 ± 0.056
san1∆
  protein stability index: 2.82 ± 0.053
ubr1∆
  protein stability index: 2.84 ± 0.043

## AKLNHLKKLEKFMELER [SWI3]
doa10∆
  protein stability index: 2.9 ± 0.064
pdr5∆
  protein stability index: 2.83 ± 0.069
san1∆
  protein stability index: 3.03 ± 0.054
ubr1∆
  protein stability index: 2.66 ± 0.058

## NGQRSNSIRAREVENSV [SMC1]
doa10∆
  protein stability index: 3.31 ± 0.075
pdr5∆
  protein stability index: 3.37 ± 0.058
san1∆
  protein stability index: 3.36 ± 0.048
ubr1∆
  protein stability index: 3.19 ± 0.072

## DIEVPDVNALKFNNTQR [SNF12]
doa10∆
  protein stability index: 2.97 ± 0.1
pdr5∆
  protein stability index: 3.29 ± 0.06
san1∆
  protein stability index: 2.98 ± 0.047
ubr1∆
  protein stability index: 3.09 ± 0.051

## LICPQYGTENKDGEDII [CSL4]
doa10∆
  protein stability index: 3.23 ± 0.15
pdr5∆
  protein stability index: 3.41 ± 0.13
san1∆
  protein stability index: 3.12 ± 0.14
ubr1∆
  protein stability index: 3.28 ± 0.13

## ERTKLQEHTIFTQLKKN [SNU114]
doa10∆
  protein stability index: 1.46 ± 0.057
pdr5∆
  protein stability index: 2 ± 0.056
san1∆
  protein stability index: 1.97 ± 0.084
ubr1∆
  protein stability index: 1.58 ± 0.039

## KLYFQLFLNTGCLSVLY [SRP68]
doa10∆
  protein stability index: 1.47 ± 0.038
pdr5∆
  protein stability index: 1.19 ± 0.041
san1∆
  protein stability index: 1.19 ± 0.1
ubr1∆
  protein stability index: 1.21 ± 0.043

## LKDSKDFDESLKYLDDL [RPN9]
doa10∆
  protein stability index: 3.02 ± 0.21
pdr5∆
  protein stability index: 3.21 ± 0.14
ubr1∆
  protein stability index: 2.86 ± 0.17

## LKTEKIFKEINEHSTSY [FAS1]
doa10∆
  protein stability index: 3.29 ± 0.22
pdr5∆
  protein stability index: 3.48 ± 0.2

## QQQLRNQIQRQQQQQFR [SNF5]
doa10∆
  protein stability index: 1.43 ± 0.18
san1∆
  protein stability index: 1.4 ± 0.21
ubr1∆
  protein stability index: 1.55 ± 0.061

## DDLEKTLDKKDSIPLRI [RPN9]
pdr5∆
  protein stability index: 2.3 ± 0.14
san1∆
  protein stability index: 2.94 ± 0.11
ubr1∆
  protein stability index: 2.33 ± 0.11

## QTRWGLPSGRQDGVLLV [FAS2]
doa10∆
  protein stability index: 1.65 ± 0.12
san1∆
  protein stability index: 1.59 ± 0.24
ubr1∆
  protein stability index: 1.32 ± 0.15

## RIGVLQARMMQQQSADH [NSL1]
doa10∆
  protein stability index: 2.88 ± 0.062
pdr5∆
  protein stability index: 3.06 ± 0.057
san1∆
  protein stability index: 3.06 ± 0.046
ubr1∆
  protein stability index: 2.96 ± 0.042

## ILQILNLMILNTKVPVD [YML103C/NUP188]
doa10∆
  protein stability index: 1.34 ± 0.1
pdr5∆
  protein stability index: 1.51 ± 0.07
san1∆
  protein stability index: 1.12 ± 0.29
ubr1∆
  protein stability index: 1.34 ± 0.1
